We go through two substances from paper doi:10.1101/2022.11.09.515798.

Assay [1] concerns the target Hyphochytrium catenoides kalium channelrhodopsin 1 (HcKCR1) (Hyphochytrium catenoides). The experiment in a line: cryo-EM structure.
For assay [2], the target named is Hyphochytrium catenoides kalium channelrhodopsin 2 (HcKCR2) (Hyphochytrium catenoides). The experiment in a line: cryo-EM structure.

“Hyphochytrium catenoides kalium channelrhodopsin 1 (HcKCR1) (natural protein)”: the stoichiometry N (as a rule, a count of units in the complex or per binding partner) in assay [1] amounted to 3.

For the substance “Hyphochytrium catenoides kalium channelrhodopsin 2 (HcKCR2) (natural protein)”, in assay [2], the stoichiometry N stood at 3.
